Results taken from patent US20210206856A1 (PANDION OPERATIONS, published 2021).
Where a chain is given by its changes, count along the chain named.

T1: human MAdCAM expressed on cells (human, UniProt Q13477 19-382)
T1 construct: whole, on cells; also called MADCAM1
T1 sequence (looked up): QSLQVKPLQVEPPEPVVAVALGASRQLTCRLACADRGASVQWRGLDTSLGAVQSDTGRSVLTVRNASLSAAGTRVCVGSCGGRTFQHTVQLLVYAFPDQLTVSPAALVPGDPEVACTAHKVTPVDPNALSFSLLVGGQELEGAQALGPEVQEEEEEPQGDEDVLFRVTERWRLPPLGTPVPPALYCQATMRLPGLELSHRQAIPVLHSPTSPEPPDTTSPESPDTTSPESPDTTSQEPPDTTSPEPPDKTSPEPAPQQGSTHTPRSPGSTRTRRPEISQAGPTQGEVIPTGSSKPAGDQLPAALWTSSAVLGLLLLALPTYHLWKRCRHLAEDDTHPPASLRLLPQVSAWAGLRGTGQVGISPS

T2: mouse MAdCAM expressed on cells (mouse, UniProt Q61826 22-405)
T2 construct: whole, on cells
T2 sequence (looked up): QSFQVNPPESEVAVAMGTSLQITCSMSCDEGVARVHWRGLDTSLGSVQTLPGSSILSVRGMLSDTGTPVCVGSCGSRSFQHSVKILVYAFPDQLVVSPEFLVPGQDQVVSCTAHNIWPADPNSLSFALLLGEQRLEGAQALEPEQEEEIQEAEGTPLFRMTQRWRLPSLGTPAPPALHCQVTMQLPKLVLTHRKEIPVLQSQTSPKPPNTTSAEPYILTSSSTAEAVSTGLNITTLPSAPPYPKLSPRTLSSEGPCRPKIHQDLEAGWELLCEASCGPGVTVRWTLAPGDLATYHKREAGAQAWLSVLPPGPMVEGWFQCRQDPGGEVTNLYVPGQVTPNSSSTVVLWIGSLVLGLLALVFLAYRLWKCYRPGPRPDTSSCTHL

B1: MAdCAM Antibody Table 2 Clone 57 (antibody, human IgG1, V domains shown)
VH: EVQLLESGGGLVQPGGSLRLSCAASGFSVSSNYMSWVRQAPGKGLEWVAGISYDGSSKPYADSVKGRFTISRDNSKNTLYLQMNSLRAEDTAVYYCARSRGIAARPLQHWGQGTLVTVSS
VL: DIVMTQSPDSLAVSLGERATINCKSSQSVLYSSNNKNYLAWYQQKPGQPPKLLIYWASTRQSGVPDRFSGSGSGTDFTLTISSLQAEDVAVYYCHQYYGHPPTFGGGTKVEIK
B2: MAdCAM Antibody Table 2 Clone 58 (antibody, human IgG1, V domains shown)
VH: B1 VH
VL: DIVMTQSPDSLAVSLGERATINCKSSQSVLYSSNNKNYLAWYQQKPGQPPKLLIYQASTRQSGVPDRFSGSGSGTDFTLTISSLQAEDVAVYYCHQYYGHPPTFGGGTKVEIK
B3: MAdCAM Antibody Table 2 Clone 63 (antibody, human IgG1, V domains shown)
VH: EVQLLESGGGLVQPGGSLRLSCAASGFTFNNYGMNWVRQAPGKGLEWVSRINSDGSSTSYADSVKGRFTISRDNSKNTLYLQMNSLRAEDTAVYYCARGAYYYYYMDVWGQGTLVTVSS
VL: EIVMTQSPATLSVSPGERATLSCRASQSVSGSYLAWYQQKPGQAPRLLIYATSSRASGIPARFSGSGSGTEFTLTISSLQSEDFAVYYCQQYYSGLTFGQGTKVEIK
B4: MAdCAM Antibody Table 2 Clone 55 (antibody, human IgG1, V domains shown)
VH: EVQLLESGGGLVQPGGSLRLSCAASGFTFDDFAMHWVRQAPGKGLEWVSGISGNGDSRYYADSVKGRFTISRDNSKNTLYLQMNSLRAEDTAVYYCARDASYGGNYGMDVWGQGTTVTVSS
VL: DIQMTQSPSSLSASVGDRVTITCQASQDIRNYLNWYQQKPGKAPKLLIYKASTLESGVPSRFSGSGSGTDFTLTISSLQPEDFATYYCQQANSFPLTFGPGTKVDIK
B5: MAdCAM Antibody Table 2 Clone 64 (antibody, human IgG1, V domains shown)
VH: EVQLLESGGGLVQPGGSLRLSCAASGFTFSNSDMNWVRQAPGKGLEWVAHIWNDGSQKYYADSVKGRFTISRDNSKNTLYLQMNSLRAEDTAVYYCARDRTDPGYSSAMDVWGQGTTVTVSS
VL: B4 VL with Q24R, N34G, K50D, T53S, S56T, N92T, F94L, P100G, D105E
B6: MAdCAM Antibody Table 2 Clone 52 (antibody, human IgG1, V domains shown)
VH: EVQLLESGGGLVQPGGSLRLSCAASGFTFDDYGMSWVRQAPGKGLEWVSYISSSSSYIYYADSVKGRFTISRDNSKNTLYLQMNSLRAEDTAVYYCAREIAAAGFYGMDVWGQGTTVTVSS
VL: not shown
B7: MAdCAM Antibody Table 2 Clone 44 (antibody, human IgG1, V domains shown)
VH: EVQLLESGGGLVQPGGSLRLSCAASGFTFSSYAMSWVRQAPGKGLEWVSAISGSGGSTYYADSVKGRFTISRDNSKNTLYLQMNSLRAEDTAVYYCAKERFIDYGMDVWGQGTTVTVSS
VL: DIQMTQSPSSLSASVGDRVTITCQASQDISNYLNWYQQKPGKAPKLLIYAASSLQSGVPSRFSGSGSGTDFTLTISSLQPEDFATYYCQQTYSGWTFGPGTKVDIK
B8: MAdCAM Antibody Table 2 Clone 60 (antibody, human IgG1, V domains shown)
VH: EVQLLESGGGLVQPGGSLRLSCAASGFTFSDHGMHWVRQAPGKGLEWVSVIYGGESTYYADSVKGRFTISRDNSKNTLYLQMNSLRAEDTAVYYCARDPAVAGGGIFDYWGQGTLVTVSS
VL: DIQMTQSPSSLSASVGDRVTITCRASQGISNYLAWYQQKPGKAPKLLIYDASNLETGVPSRFSGSGSGTDFTLTISSLQPEDFATYYCQQSYSTCYTFGQGTKLEIK
B9: MAdCAM Antibody Table 2 Clone 68 (antibody, human IgG1, V domains shown)
VH: EVQLLESGGGLVQPGGSLRLSCAASGFTFGDYAMSWVRQAPGKGLEWVAVVSYDGTNKYYADSVKGRFTISRDNSKNTLYLQMNSLRAEDTAVYYCAKDICSSTSCYFDLWGRGTLVTVSS
VL: B8 VL with G28N, S30N, L33V, A34N, S91A, Y92N, T94F, C95P, Y96P, K103R
B10: MAdCAM Antibody Table 2 Clone 45 (antibody, human IgG1, V domains shown)
VH: EVQLVESGGGLVKPGGSLRLSCAASGFTFGDYAMSWVRQAPGKGLEWVSYISGDIGYTNYAAPVKGRFTISRDDSKNTLYLQMNSLKTEDTAVYYCARDVAATGNWYFDLWGRGTLVTVSS
VL: not shown
B11: MAdCAM Antibody Table 2 Clone 66 (antibody, human IgG1, V domains shown)
VH: QVQLVQSGAEVKKPGASVKVSCKASGYTFTGHYMHWVRQAPGQGLEWMGIINPSGGSTSYAQKFQGRVTMTRDTSTSTVYMELSSLRSEDTAVYYCARDGAWFGEEYYYGMDVWGQGTTVTVSS
VL: DIQMTQSPSSLSASVGDRVTITCRASQGISNWLAWYQQKPGKAPKLLIYDASNLETGVPSRFSGSGSGTDFTLTISSLQPEDFATYYCQQYYSFPLYTFGQGTKVEIK
B12: MAdCAM Antibody Table 2 Clone 62 (antibody, human IgG1, V domains shown)
VH: QVQLVQSGAEVKKPGASVKVSCKASGYTFTSYDINWVRQAPGQGLEWMGWINPNSGTTGYAQKFQGRVTMTRDTSTSTVYMELSSLRSEDTAVYYCARSPYYYYGMDVWGQGTTVTVSS
VL: DIQMTQSPSSLSASVGDRVTITCRASHFISRWVAWYQQKPGKAPKLLIYAASTLQSGVPSRFSGSGSGTDFTLTISSLQPEDFATYYCQQSYSGISFGPGTKVDIK
B13: MAdCAM Antibody Table 2 Clone 43 (antibody, human IgG1, V domains shown)
VH: QVQLVQSGAEVKKPGASVKVSCKASGYTFTSYGISWVRQAPGQGLEWMGWMHPKSGDTGLTQKFQGRVTMTRDTSTSTVYMELSSLRSEDTAVYYCARDTPYYYYGMDVWGQGTTVTVSS
VL: DIQMTQSPSSLSASVGDRVTITCRASQSISSWLAWYQQKPGKAPKLLIYAASSLQSGVPSRFSGSGSGTDFTLTISSLQPEDFATYYCQQSYSVPITFGQGTKVEIK
B14: MAdCAM Antibody Table 2 Clone 61 (antibody, human IgG1, V domains shown)
VH: QVQLVQSGAEVKKPGASVKVSCKASGDTFTGYYIHWVRQAPGQGLEWMGWINPNSGGTNYAQKFQGRVTMTRDTSTSTVYMELSSLRSEDTAVYYCARSGLWLGSYYGMDVWGQGTLVTVSS
VL: B13 VL with S28T, S31I, A50D, S53T, S91Y, Y92S, V94Y, I96L
B15: MAdCAM Antibody Table 2 Clone 67 (antibody, human IgG1, V domains shown)
VH: QVQLVQSGAEVKKPGASVKVSCKASGYTFTGYYMHWVRQAPGQGLEWMGMIYPRDGSTSYAQKFQGRVTMTRDTSTSTVYMELSSLRSEDTAVYYCAMTGWGYGMDVWGKGTTVTVSS
VL: B8 VL with S30N, N53T, E55Q, T56S, T94A, C95P, Y96P
B16: MAdCAM Antibody Table 2 Clone 69 (antibody, human IgG1, V domains shown)
VH: QVQLVQSGAEVKKPGASVKVSCKASGYTFTSYYMHWVRQAPGQGLEWMGIIDPSGGSTSYAQKFQGRVTMTRDTSTSTVYMELSSLRSEDTAVYYCAREEWSSGGVGYFDYWGQGTLVTVSS
VL: B13 VL with S28G, W32Y, A51T, S56T, S91T, V94I, K103R, V104L
B17: MAdCAM Antibody Table 2 Clone 56 (antibody, human IgG1, V domains shown)
VH: EVQLVESGGGLVKPGGSLRLSCAASGFTFSSYWMSWVRQAPGKGLEWVSAIGTGGGTYYAAPVKGRFTISRDDSKNTLYLQMNSLKTEDTAVYYCAREWLVPYYGMDVWGQGTTVTVSS
VL: B13 VL with S31R, A50G, S53N, V94T, I96W
B18: MAdCAM Antibody Table 2 Clone 70 (antibody, human IgG1, V domains shown)
VH: QVQLVQSGAEVKKPGASVKVSCKASGYPFTDYYMHWVRQAPGQGLEWMGWIKPNSGDTEYAQKFQGRVTMTRDTSTSTVYMELSSLRSEDTAVYYCARDRFVGKPDYYYYGMDVWGQGTMVTVSS
VL: B13 VL with S31V, S93D, V94T, I96Y, V104L
B19: MAdCAM Antibody Table 2 Clone 53 (antibody, human IgG1, V domains shown)
VH: QVQLVQSGAEVKKPGASVKVSCKASGYTFTSYYMHWVRQAPGQGLEWMGWMNPNSGNTGYAQKFQGRVTMTRDTSTSTVYMELSSLRSEDTAVYYCAREGLGYCTNGVCWNYYGMDVWGQGTLVTVSS
VL: B13 VL with S28G, A50G, V94T, I96Y
B20: MAdCAM Antibody Table 2 Clone 54 (antibody, human IgG1, V domains shown)
VH: QVQLVQSGAEVKKPGSSVKVSCKASGGTLSRYGVSWVRQAPGQGLEWMGGIIPIFGTTNYAQKFQGRVTITADESTSTAYMELSSLRSEDTAVYYCARDRVYYDSSGYPTWYFDLWGRGTLVTVSS
VL: EIVMTQSPATLSVSPGERATLSCRASQSVSSSYLAWYQQKPGQAPRLLIYGASTRATGIPARFSGSGSGTEFTLTISSLQSEDFAVYYCQQYGSSPITFGQGTKVEIK

Target: T1, human MAdCAM expressed on cells
Test: cell binding

| binding result | Binder |
| --- | --- |
| binds | B1 |
| binds | B2 |
| binds | B3 |
| binds | B4 |
| binds | B5 |
| binds | B6 |
| binds | B7 |
| binds | B8 |
| binds | B9 |
| binds | B10 |
| binds | B11 |
| binds | B12 |
| binds | B13 |
| binds | B14 |
| binds | B15 |
| binds | B16 |
| binds | B17 |
| binds | B18 |
| binds | B19 |
| binds | B20 |

Target: T2, mouse MAdCAM expressed on cells
Test: cell binding

| binding result | Binder |
| --- | --- |
| no binding | B1 |
| no binding | B2 |
| no binding | B3 |
| no binding | B4 |
| no binding | B5 |
| no binding | B6 |
| no binding | B7 |
| binds | B8 |
| no binding | B9 |
| no binding | B10 |
| no binding | B11 |
| no binding | B12 |
| no binding | B13 |
| no binding | B14 |
| no binding | B15 |
| no binding | B16 |
| no binding | B17 |
| no binding | B18 |
| no binding | B19 |
| no binding | B20 |
